Consider seven variants from PMC10658565, “Polymorphic nanobody crystals as long‐acting intravitreal therapy for wet age‐related macular degeneration” (Bioengineering & Translational Medicine, 2023).

What is called EC50 is the midpoint of the concentration-response curve.

The labels stand for the following.
B1: mNb‐WT [not stated] / recombinant VEGF‐A165 protein [not stated] (parent complex)
chain 1: MDVQLVESGGGLVQPGGSLRLSCAASGRTFSSYSMGWFRQAPGKEREFVVAISKGGYKYDAVSLEGRFTISRDNAKNTVYLQINSLRPEDTAVYYCASSRAYGSSRLRLADTYEYWGQGTLVTVSS
chain 2: APMAEGGGQNHHEVVKFMDVYQRSYCHPIETLVDIFQEYPDEIEYIFKPSCVPLMRCGGCCNDEGLECVPTEESNITMQIMRIKPHQGQHIGEMSFLQHNKCECRPKKDRARQENPCGPCSERRKHLFVQDPQTCKCSCKNTDSRCKARQLELNERTCRCDKPRR

In the assay the parent is B1. Description: ELISA; parent: 0.73 nM.
Take chain 1 Q118N: the EC50 worked out at 0.77 nM.

For the variant chain 1 K44A, the 50% effective concentration (EC50) worked out at 0.62 nM.

In the case of chain 1 S8A, the EC50 was 0.82 nM.

Take chain 1 Y95F: the EC50 stood at 0.8 nM.

Take chain 1 E45A: the half-maximal effective concentration (EC50) was found to be 0.79 nM.

For the variant chain 1 K44A, chain 1 E45A, the EC50 was found to be 0.91 nM.

For chain 1 Q14N, the EC50 stood at 0.77 nM.
